Data reported in paper PMC7297996, “Alzheimer’s disease-related dysregulation of mRNA translation causes key pathological features with ageing” (Translational Psychiatry, 2020).

Target: the molecule itself
Test: native gel or EMSA; NativePAGE (Invitrogen) of the synthetic Aβ1-42 preparation, detected with antibody 4G8; guanidine hydrochloride (1:1) used to break down oligomers

B1: synthetic rat Aβ1-42 peptide (peptide, UniProt P08592 672-713, looked up)
peptide: DAEFGHDSGFEVRHQKLVFFAEDVGSNKGAIIGLMVGGVVIA
notes: amyloid-beta 1-42, cut product of the amyloid precursor protein (APP), rat; Oligomer preparation: 100 uM stock in 200 mM HEPES pH 8.5, agitated for 30 min at room temperature; also called amyloid-β 1-42; rodent Aβ_(1-42); source: synthetic peptide; bought: Calbiochem
binding result: binds
